Reference: PMC10912226, “Filament formation drives catalysis by glutaminase enzymes important in cancer progression” (Nature Communications, 2024)
Numbering of substitutions follows the chain as printed. Numbers in names are those of the source.

B1: human liver-type glutaminase GLS2, wild type, without the mitochondrial localization sequence (residue 38-602) (enzyme, UniProt Q9UI32 38-602, looked up)
chain: HHLSEAAAQGRETPHSHQPQHQDHDSSESGMLSRLGDLLFYTIAEGQERIPIHKFTTALKATGLQTSDPRLRDCMSEMHRVVQESSSGGLLDRDLFRKCVSSNIVLLTQAFRKKFVIPDFEEFTGHVDRIFEDVKELTGGKVAAYIPQLAKSNPDLWGVSLCTVDGQRHSVGHTKIPFCLQSCVKPLTYAISISTLGTDYVHKFVGKEPSGLRYNKLSLNEEGIPHNPMVNAGAIVVSSLIKMDCNKAEKFDFVLQYLNKMAGNEYMGFSNATFQSEKETGDRNYAIGYYLKEKKCFPKGVDMMAALDLYFQLCSVEVTCESGSVMAATLANGGICPITGESVLSAEAVRNTLSLMHSCGMYDFSGQFAFHVGLPAKSAVSGAILLVVPNVMGMMCLSPPLDKLGNSHRGTSFCQKLVSLFNFHNYDNLRHCARKLDPRREGAEIRNKTVVNLLFAAYSGDVSALRRFALSAMDMEQKDYDSRTALHVAAAEGHIEVVKFLIEACKVNPFAKDRWGNIPLDDAVQFNHLEVVKLLQDYQDSYTLSETQAEAAAEALSKENLESMV
notes: Tetramer in the apo state (cryo-EM); tetramers stack into filaments with glutamine and Pi; also called LGA; apo-GLS2; source: E. coli BL21 (DE3), purified (Co2+ TALON resin, HiTrap Q anion exchange, Superdex 200 SEC)
B2: human GLS2 (N308A) mutant (enzyme, UniProt Q9UI32 38-602, looked up)
chain: B1 chain with N271A
notes: liver-type glutaminase GLS2, human, residues 38-602, with N308A in the tetramer-tetramer (filament) interface; source: E. coli BL21 (DE3), purified (Co2+ TALON resin, HiTrap Q anion exchange, Superdex 200 SEC)

Experiments:
[1] = molecular target: the molecule itself; assay: cryo-EM structure; apo-GLS2, 5 µM, no substrate or activator; single particle, C2 symmetry; step: subunits in the tetramer
[2] = molecular target: the molecule itself; assay: cryo-EM structure; GLS2 5 µM with 30 µM inhibitor 968 in 2% DMSO; 2D classification, dimer classes kept, 3.65 Å map, model not built
[3] = molecular target: the molecule itself; assay: negative stain electron microscopy; glutaminase 1 µM with glutamine 20 mM and inorganic phosphate (50-200 mM), RT, 30 s to 1 min after mixing (GAC Y466W with DMSO also 30 min); step: tetramers to filament

Row | Protein | stoichiometry N [1] | stoichiometry N [2] | stoichiometry N [3]
1 | B1 | 4 | 2 | –
2 | B2 | – | – | 4
